Source: patent US20230293647A1 (AUTOLUS, published 2023)

Legend:
Assay in all cases: cell microarray
ADGRG7 = molecular target: T1, ADGRG7 (human, UniProt Q96K78)
T1 sequence (looked up): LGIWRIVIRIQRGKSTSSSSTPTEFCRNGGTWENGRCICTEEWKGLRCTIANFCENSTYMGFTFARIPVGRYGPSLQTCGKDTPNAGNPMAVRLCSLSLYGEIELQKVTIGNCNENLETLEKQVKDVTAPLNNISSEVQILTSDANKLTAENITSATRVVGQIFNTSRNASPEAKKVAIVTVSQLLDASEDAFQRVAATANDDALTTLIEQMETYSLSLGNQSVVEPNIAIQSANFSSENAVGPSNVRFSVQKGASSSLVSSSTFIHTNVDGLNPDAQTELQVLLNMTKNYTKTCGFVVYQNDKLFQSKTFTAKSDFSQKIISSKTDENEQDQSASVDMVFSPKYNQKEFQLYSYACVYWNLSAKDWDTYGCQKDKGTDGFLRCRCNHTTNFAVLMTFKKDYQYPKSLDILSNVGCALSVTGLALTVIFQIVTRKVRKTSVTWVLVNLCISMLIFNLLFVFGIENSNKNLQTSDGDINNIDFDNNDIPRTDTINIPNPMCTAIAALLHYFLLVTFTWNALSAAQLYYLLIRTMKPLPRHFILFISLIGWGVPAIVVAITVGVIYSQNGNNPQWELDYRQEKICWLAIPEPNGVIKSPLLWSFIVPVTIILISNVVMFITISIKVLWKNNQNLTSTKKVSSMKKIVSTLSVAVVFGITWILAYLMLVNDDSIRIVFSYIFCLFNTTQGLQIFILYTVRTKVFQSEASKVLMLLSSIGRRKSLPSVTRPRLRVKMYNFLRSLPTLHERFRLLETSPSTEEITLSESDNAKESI

SIGLEC15 = molecular target: T2, SIGLEC15 (human, UniProt Q6ZMC9)
T2 sequence (looked up): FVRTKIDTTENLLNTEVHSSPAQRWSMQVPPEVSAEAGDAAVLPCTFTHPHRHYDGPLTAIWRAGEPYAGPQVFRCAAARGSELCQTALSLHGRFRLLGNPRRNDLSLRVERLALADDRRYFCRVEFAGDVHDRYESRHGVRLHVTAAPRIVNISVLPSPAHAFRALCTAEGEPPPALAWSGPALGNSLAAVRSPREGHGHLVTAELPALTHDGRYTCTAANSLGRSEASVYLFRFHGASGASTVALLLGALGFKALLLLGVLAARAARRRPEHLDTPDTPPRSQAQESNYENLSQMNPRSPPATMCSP

SLC26A4 = molecular target: T3, SLC26A4 (human, UniProt O43511)
T3 sequence (looked up): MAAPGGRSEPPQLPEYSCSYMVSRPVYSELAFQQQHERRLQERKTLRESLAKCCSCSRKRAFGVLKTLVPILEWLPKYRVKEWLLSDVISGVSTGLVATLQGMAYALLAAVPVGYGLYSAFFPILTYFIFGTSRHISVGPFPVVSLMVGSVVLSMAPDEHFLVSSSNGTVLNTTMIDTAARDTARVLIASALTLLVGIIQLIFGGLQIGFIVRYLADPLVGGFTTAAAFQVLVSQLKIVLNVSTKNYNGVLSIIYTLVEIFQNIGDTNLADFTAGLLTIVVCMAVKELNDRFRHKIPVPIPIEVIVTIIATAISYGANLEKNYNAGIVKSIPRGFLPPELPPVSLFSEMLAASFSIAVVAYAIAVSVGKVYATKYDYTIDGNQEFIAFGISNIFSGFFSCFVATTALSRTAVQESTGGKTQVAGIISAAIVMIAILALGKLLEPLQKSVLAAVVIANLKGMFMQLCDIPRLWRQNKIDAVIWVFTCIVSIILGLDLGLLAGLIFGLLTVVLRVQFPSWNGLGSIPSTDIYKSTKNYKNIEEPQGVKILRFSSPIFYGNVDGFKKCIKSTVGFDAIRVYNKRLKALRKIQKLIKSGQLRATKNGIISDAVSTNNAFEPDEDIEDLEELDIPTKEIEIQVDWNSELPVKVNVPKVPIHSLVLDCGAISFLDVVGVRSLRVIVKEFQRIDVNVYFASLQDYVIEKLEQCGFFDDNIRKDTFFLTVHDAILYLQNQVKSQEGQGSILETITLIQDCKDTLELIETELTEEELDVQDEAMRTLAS

Measured: binding result

B1: Fc LALA-PG only construct with the ACE2 domain omitted (other)
chain: EPKSCDKTHTCPPCPAPEAAGGPSVFLFPPKPKDTLMISRTPEVTCVVVDVSHEDPEVKFNWYVDGVEVHNAKTKPREEQYNSTYRVVSVLTVLHQDWLNGKEYKCKVSNKALGAPIEKTISKAKGQPREPQVYTLPPSREEMTKNQVSLTCLVKGFYPSDIAVEWESNGQPENNYKTTPPVLDSDGSFFLYSKLTVDKSRWQQGNVFSCSVMHEALHNHYTQKSLSLSPGK
notes: also called control Fc (LALA-PG)
no binding: ADGRG7 | SIGLEC15 | SLC26A4
